{
  "source": "the RNAGym collection of RNA variant scans (doi:10.7554/elife.80360)",
  "parents": {"B1": {"name": "HDV Ribozyme (parent)", "chain": "GGCCGGCAUGGUCCCAGCCUCCUCGCUGGCGCCGGCUGGGCAACAUUCCGAGGGGACCGUCCCCUCGGUAAUGGCGAAUGGGACCCA"}},
  "data": [
    {"variants_of": "B1", "test": "self-cleavage, relative activity (ratio to wild type); higher = more cleavage; co-transcriptional", "values": [
      {"variant": "GGCCGGCAUGGUCCCAGCCUCCCCGCUGGCGCCGGCUGGGCAACAUUCCGAGGGGACCGUCCCCUCGGUAAGGGCGAAUGGGACCCA", "note": "[U23C U72G]", "self-cleavage": 0.532},
      {"variant": "GGCCGGCAUGGUCCCAGCCUCCUCGCUGGCGCCGGCUGGGCAACAUUCCGUGCGGACCGUCCCCUCGGUAAUGGCGAAUGGGACCCA", "note": "[A51U G53C]", "self-cleavage": 0.776},
      {"variant": "GGCCGGCAUGGUCCCAGCCUCCUCGCUGGCGCCGGCUGGGCAACGUUCCGAGGGAACCGUCCCCUCGGUAAUGGCGAAUGGGACCCA", "note": "[A45G G55A]", "self-cleavage": 1.08},
      {"variant": "GGCCGGCAUGGUCCCAGCCUCCUCGCUGGCGCCGGCAGGGCAACAUUCCGAGGGGACCGUCCCUUCGGUAAUGGCGAAUGGGACCCA", "note": "[U37A C64U]", "self-cleavage": 0.185},
      {"variant": "GGCCGGCAUGGUCCAAGCCUCCUCGCUGGCGCCGGCUGGGCAACAUUCCGCGGGGACCGUCCCCUCGGUAAUGGCGAAUGGGACCCA", "note": "[C15A A51C]", "self-cleavage": 1.14},
      {"variant": "GGCCGGCAUGGUCCCAGCCUCCUCGCUGGCGCCGGCUGGGCAACAUUCCGAGGGGACCGUCCCCGCGGUAAUGGCGAAUGGGGCCCA", "note": "[U65G A83G]", "self-cleavage": 0.698},
      {"variant": "GGCCGGCAUGGUCCCGGCCUCCUCGCUGGCGCCGGCUGGGCAACAUUCCGAGGGGACCGUCCCCUCGGUAGUGGCGAAUGGGACCCA", "note": "[A16G A71G]", "self-cleavage": 0.748},
      {"variant": "GGCCGGCAUGGUCCCAGCCUCCUCGCUGGCGCUGGCUGGGCAACAUUCCGAGGGGACCGGCCCCUCGGUAAUGGCGAAUGGGACCCA", "note": "[C33U U60G]", "self-cleavage": 0.935},
      {"variant": "GGCCGGCAUGGUCCCAGCCUCCUCGCUGGCGCGGGCUGGGCAACAUUCCGAGGGGACCGUGCCCUCGGUAAUGGCGAAUGGGACCCA", "note": "[C33G C61G]", "self-cleavage": 0.19},
      {"variant": "GGCCGGCAUGGUCCCAGCCUCCUCGUUGGCGCCGGCUGGGCAACAUUCCGAGGGGACCGUCCCCUCGGUAAUGGAGAAUGGGACCCA", "note": "[C26U C75A]", "self-cleavage": 0.154},
      {"variant": "GGCCGGCAUGGUCCCAGCCUCCUCGCUGGCGCCGGCUGGGCAACAUUCCCAGGGGACCGUCCACUCGGUAAUGGCGAAUGGGACCCA", "note": "[G50C C63A]", "self-cleavage": 0.305},
      {"variant": "GGCCGGCAUGGUCCCAGCCUCCUCGCUCGCGCCGGCUGGGCAACAUUCCGAGGGGACCGUCCCCUCGGUAAUGGCGAAUAGGACCCA", "note": "[G28C G80A]", "self-cleavage": 0.193},
      {"variant": "GUCCGGCAUGGUCCCAGCCUCCUCGCUGGCGCCGGCUGGGCAACAUUCCGAGGGGACCGUCCCCUCAGUAAUGGCGAAUGGGACCCA", "note": "[G2U G67A]", "self-cleavage": 0.0602},
      {"variant": "GGCCAGCAUGGUCCCAGCCUCCUCGCUGGCGCCGGCUGGGCAACAUUCCGAGGGGACCGUCCCCUCGGUAAUGGCGAUUGGGACCCA", "note": "[G5A A78U]", "self-cleavage": 0.101},
      {"variant": "GGCUGGCAUGGUCCCAGCCUCCUCGCUGGCGCCGGCUGGGCAACAUUCCGAGGGGACCGUCCCCUCAGUAAUGGCGAAUGGGACCCA", "note": "[C4U G67A]", "self-cleavage": 0.554},
      {"variant": "GGCCGGCAUGGUCCCAGCCUCCUCGCUGGCGCCGGCUGGGCAACAUUCCGAGGGGACCGUCCCCUCGGUAAUGGCGAAUUGGACUCA", "note": "[G80U C85U]", "self-cleavage": 0.227},
      {"variant": "GGCCGGCAUGGUCCCAGCCUCCUCGCUGGCGCCGGCUGGGCAACAUUGCGAGGGGACCGUCCCCUCUGUAAUGGCGAAUGGGACCCA", "note": "[C48G G67U]", "self-cleavage": 0.972},
      {"variant": "GGCCGGCAUGGUCUCAGCCUCCUCGCUGGCGCCGGCUGGGCAACAUUCCGAGGGGACCGUCCCCUCGGUAAUGGCGAAUGGUACCCA", "note": "[C14U G82U]", "self-cleavage": 0.494},
      {"variant": "GGCCGGCAUGGUCCCAGCCUCCCCGCUGGCGCCGGCUGGGCAACAUUCCGAGGGGACCGUCCCCUCGGUAAUGGCGAAUGGGACCGA", "note": "[U23C C86G]", "self-cleavage": 0.95},
      {"variant": "GGCCGGCAUGGUCUCAGCCUCCUCGCUGGCGCCGGCUGGGCAACAUUCCGAGGGGACCGUCCCCCCGGUAAUGGCGAAUGGGACCCA", "note": "[C14U U65C]", "self-cleavage": 0.997},
      {"variant": "GGCCGGCAUGGUCCCAGCCUCCUCGCUGGCGCCGGCUGGGCAACAUUUCGAGGGGACCGUCCCCUCGGUAAUGGCGAAUGAGACCCA", "note": "[C48U G81A]", "self-cleavage": 0.308},
      {"variant": "GGCCGGCAUGGUCCUAGCCUCCUCGCUGGCGCCGGCUGGGCAACAUUCCGAGGGGACCGUCCCCUCGGUAAUGGCGAAUGCGACCCA", "note": "[C15U G81C]", "self-cleavage": 0.317},
      {"variant": "GGUCGGCAUGGUCCCAGCCUCCUCGCUGGCGCCGGCGGGGCAACAUUCCGAGGGGACCGUCCCCUCGGUAAUGGCGAAUGGGACCCA", "note": "[C3U U37G]", "self-cleavage": 0.0639},
      {"variant": "GGUCGGCAUGGUCCCAGCCUCCUCGCUGGCGCCGGCUGGGCAACAUUCCGAGGGGACCGUCCCCUCGGUAUUGGCGAAUGGGACCCA", "note": "[C3U A71U]", "self-cleavage": 0.742},
      {"variant": "GGCCGGCAUGGUCCCAGCCUCCUCGCUGGCGCUCGCUGGGCAACAUUCCGAGGGGACCGUCCCCUCGGUAAUGGCGAAUGGGACCCA", "note": "[C33U G34C]", "self-cleavage": 0.0978},
      {"variant": "GGCCGGCAUGGUCCCAGCCUCCUCGCUGGCUCCGGCUGGGCAACAUUCCGAGGGGACCGUCCCCUCGGUAAUGGCGGAUGGGACCCA", "note": "[G31U A77G]", "self-cleavage": 0.231},
      {"variant": "GGCCGGCAUGGUCCCAGCCUCCUCGUUGGCGCCGGCUGGGCAACAUUCCGAGGGGACAGUCCCCUCGGUAAUGGCGAAUGGGACCCA", "note": "[C26U C58A]", "self-cleavage": 1.03},
      {"variant": "GGCCGGCAUGGUCCCAGCUUCCUCGCUGGCGCCGGCUGGGCAACAUUCCGAGGGGACCGUCCCCUCGAUAAUGGCGAAUGGGACCCA", "note": "[C19U G68A]", "self-cleavage": 0.148},
      {"variant": "GGCCGGCAUGGUCCCAGCCUCCUCACUGGCGCCGGCUGGGCAACAUUCCGAGGGGAUCGUCCCCUCGGUAAUGGCGAAUGGGACCCA", "note": "[G25A C57U]", "self-cleavage": 0.232},
      {"variant": "GGCCGGCAUGGUCCCAGCCUCCUCGCUGGCGCCGGCUGCGCAACAUUCCGAGGGGACCGUCCCCUCGGUAGUGGCGAAUGGGACCCA", "note": "[G39C A71G]", "self-cleavage": 0.158},
      {"variant": "GGCCGGCAUGGUCCCAGCCUCCUCGCUGGCGCCGGCUGGGCAACAUUCCAAGGGGACCGUCCCCUCGGUAAUGGCCAAUGGGACCCA", "note": "[G50A G76C]", "self-cleavage": 0.98},
      {"variant": "GGCCGGCAUGGUCCCAGCCUCCUCGCUGGCGCCGGCUGGGCAACAUUCCGAGAGGACCGUCCCCUCGGUAAUGGCGAAUUGGACCCA", "note": "[G53A G80U]", "self-cleavage": 0.234}
    ]}
  ]
}
